Experimental data as given in patent US20090175892A1.

What was measured:
[1] = target: T1, HLA-B*0702 molecule on HLA-B*0702 transfected TAP deficient T2 cells (T2-B7) (human); test: MHC stabilization assay on T2-B7 cells, flow cytometry with ME.1; ratio of concentration giving 20% of maximal binding against reference peptide R10TV; conditions: remark: other sources report otherwise
[2] = target: T1, HLA-B*0702 molecule on HLA-B*0702 …; test: MHC stabilization assay on T2-B7 cells, ME-1 staining; ratio of concentration inducing 20% of HLA-B*0702 expression against reference peptide CMV265-274; conditions: remark: other sources report otherwise

Binder | relative avidity [1] | RA (relative affinity) [2]
RPAEEATSL [hTERT peptide p277 (…, residues 277-285)] | 4.7 | –
DPRRLVQLL [hTERT peptide p444 (…, residues 444-452)] | – | > 10
